The nature of data set [1]: Solubility and stability of expressed domain by SDS-PAGE of supernatant and precipitate. As to conditions: expressed in E. coli, SDS-PAGE (FIG. 9). The format is physicochemical. The procedure:
After cloning the PTP active domain determined in Example <1-2>, it was expressed in E. coli and purified therefrom. After storing for a while, a proper amount of protein solution was ultra-centrifuged to separate supernatant and precipitate. SDS-PAGE was performed with the precipitate by the same manner as described in Example 3 to investigate whether the precipitate contained the target protein, leading to the examination of solubility.
The protein band cut by protease obtained in Example <1-3-2> was transferred to PVDF membrane. The band was cut and treated with a reagent recognizing and digesting N-terminal, followed by HPLC stepwise to arrange amino acids. Mass spectrometry was performed with the band to calculate the mass exactly and select stable domains. The re-designed domains were tested for activity and stability by the same manner as described in Example 4.

Data set [2] in a line: Protease (trypsin or chymotrypsin) digestion of PTP active domain, SDS-PAGE. The class given is physicochemical. As to conditions: 37° C., 30 minutes, SDS-PAGE (FIG. 8). The procedure: Based on the result of Example <1-3-1>, 20 μg of PTP active domain having low solubility and stability was serially diluted from 1:1 to 1:1,000, followed by reaction with trypsin (Sigma, USA) or chymotrypsin (Sigma, USA) at 37° C. for 30 minutes. SDS-PAGE was performed by the same manner as described in Example 3 to confirm digestion.

The values that follow come from US20130224779A1, “METHOD FOR LARGE SCALE PREPARATION OF THE ACTIVE DOMAIN OF HUMAN PROTEIN TYROSINE PHOSPHATASE WITHOUT FUSION PROTEIN” (Korea Research Institute of Bioscience and Biotechnology, priority 2007, published 2013).

B1: re-designed pk7: re-designed stable PTP active domain of pk7 (MKP2), amino acids 174-338, SEQ. ID. NO: 136 (protein)
chain: SATEPLDLGCSSCGTPLHDQGGPVEILPFLYLGSAYHAARRDMLDALGITALLNVSSDCPNHFEGHYQYKCIPVEDNHKADISSWFMEAIEYIDAVKDCRGRVLVHCQAGISRSATICLAYLMMKKRVRLEEAFEFVKQRRSIISPNFSFMGQLLQFESQVLATS
modifications: Amino acid sequence of PTP active domain pk7
For B1, in data set [1], the solubility entry is on record as “high” and the stability result was “high”.

B2: full length pk7: full length pk7 (MKP2), unstable domain amino acids 1-394 (protein, UniProt Q13115 1-394, looked up)
chain: MVTMEELREMDCSVLKRLMNRDENGGGAGGSGSHGTLGLPSGGKCLLLDCRPFLAHSAGYILGSVNVRCNTIVRRRAKGSVSLEQILPAEEEVRARLRSGLYSAVIVYDERSPRAESLREDSTVSLVVQALRRNAERTDICLLKGGYERFSSEYPEFCSKTKALAAIPPPVPPSATEPLDLGCSSCGTPLHDQGGPVEILPFLYLGSAYHAARRDMLDALGITALLNVSSDCPNHFEGHYQYKCIPVEDNHKADISSWFMEAIEYIDAVKDCRGRVLVHCQAGISRSATICLAYLMMKKRVRLEEAFEFVKQRRSIISPNFSFMGQLLQFESQVLATSCAAEAASPSGPLRERGKTPATPTSQFVFSFPVSVGVHSAPSSLPYLHSPITTSPSC
modifications: full-length
As for B2, in data set [1], the solubility entry is recorded as “low” and the stability entry is given as “low”.

B3: T38: recombinant PTP active domain; unstable domain 636-979, stable domain 709-979, SEQ. ID. NO: 120 (protein)
chain: LAKEWQALCAYQAEPNTCATAQGEGNIKKNRHPDFLPYDHARIKLKVESSPSRSDYINASPIIEHDPRMPAYIATQGPLSHTIADFWQMVWESGCTVIVMLTPLVEDGVKQCDRYWPDEGASLYHVYEVNLVSEHIWCEDFLVRSFYLKNVQTQETRTLTQFHFLSWPAEGTPASTRPLLDFRRKVNKCYRGRSCPIIVHCSDGAGRTGTYILIDMVLNRMAKGVKEIDIAATLEHVRDQRPGLVRSKDQFEFALTAVAEEVNAILKALP
modifications: Amino acid sequence of PTP active domain T38
For B3, the “stability with increase of protease concentration” value in data set [2] is on record as “maintained”.
